From the NTF2 design screens of Basanta et al. (2020) come the findings set out here.

The data set in a line: protease stability score; higher = more stable; yeast display proteolysis, trypsin and chymotrypsin.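 Also: relative to predicted unfolded state with 0 unfolded-like and 1 meaning tenfold more protease.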
Regarding “DEHEEDWRHVLKTLEDVMRTGDPHLFSHLADPHVRLRIDGRDHIGMELMWEILHKYKNITIEIEHSRVQGDKIEIRGTLDVDGRRYHVTIFADKINGKWIHREMEVT”, the protease stability score came to 1.18. Take “DEHEEEAHKFVELKRRIWKTGDERLKSELADPNVKITFNGKELHGMEELIKVNREMGIKHVQIEDIDFQGNKVMVFGRSNIGDFNNRVEIIAEKYNGKWSLSEVRIH”: the protease stability score was determined as 0.322. For “DEHEEEAIRMLRLIFFLLHTGDWEVMHELFDPHARFTINGRRIHGMEEWLKFLREIRIEDSDIHVKRIDIQGDKMRIKGVVHLEGNVNGRREHTELHIDVHLEKVNGRWIIRLIEFK” the value was 2.35; for “DEHEEELKRILELIEHLIHTGDEDTMLHLADPNVRSHVNGRDRHGWNLYLRLLEELVWRLGIKHMEIHSTTAIDGRVIIHMRLHVGDKTIHVILLFQVVDGRVKSSSVEVHEE”, 1.44.

On to “DEHEEEVLRIARDFLEALRTGDEEHMTELMDPHVRLEVDGRDLHGREEVLRLLVEQWERIKNVTWEVERLEIVNGRLIIQLRVHVNGQNHDVRLYINVVDGVVKSIRHEKH”, for which the protease stability score came out at 1.47.

Take “DEHEEEVREMHRVWVELLRTGDWRILAEMFDPNVRMHIGDKEHHGREAIEIHIEKFKNVRLEITRVHIQGEYIVIEGVINIDGKTHTLRFHFVLVNGRLKQYDEHSE”: the protease stability score was 2. In the case of “DEHEEFAERNLKLLTELEETGNEDEIRKQADPHVRIEIGDKDIVGMHLWAKWVTHVKDRFDHIEVRLHRVHVQGDKILMHTQLILTQGNYRREFRTEVIIRKINGRWVLHSMHFH”, the protease stability score turned out to be 1.42. Next, “DEHEEFLHRWAEQFLKNMITGDFDRLHELLDPHVRWRIGDKDSIGWKTIIDVVKDLLREIRIEDVTLHRIEVQGDKSIIVITTIVEIDGRRYRTTVIIRMRIIDGRLKSVDVEER”: 1.31. The sequence “DEHEEHVHEITRLIIEAELTGDFERMKKMFDPNAKLILLINGREDTNHGMDFVRFWLKEHLERVDHRRVELKRWDVVNGVSHNDVTLHLEVGEWKITVKMHLHIVVVDGRLKSIKIEIR” yielded a protease stability score of 1.4. Next, “DEHEEHWREMFERWLFALITGDEETLHKLLDPNVKMDINGQHHVGREQVLHEFRKFHDVLGVKVSRNFHVKDKEVQGDKLHLTIEFRGEFNGKEEITQARIVIVKINGRWTIERVELE”: 1.97; “DEHEEISRRLAEFENEWINTGDEESFARNADPDVRIHVGEFHSHGREEMIRILKEFFRWLGVKHFRPTHIEIQGEKVIIYLEWHFDGRTHRIQIISVVVDGRRKSFQVHKL”: 0.185; “DEHEEKIHFILHILQEAWRTGDESQLENLLDPNVRIIIGDKKTHGREAVINLFNHWRVENIRVHLRDVRVQGDKIHLETEIQVDGNVNGKTDRIEFETEFIIRKVDGRWLIEVIRMH”: 2.17. In the case of “DEHEEKLIKHMESLLHWEETGDEESMLKNADPNARHDVNGVEFHGMHRFVHHVIKRGWRFRMEVEHVDAFDGRYRVEGTLILNFDGVEHRHHVILRFIVIDGRLHERKVEVR”, the protease stability score came out at 1.46. For “DEHEELIMEFLRRLLEWHLTGDEEYISRNFDPNTQFDILIGDKRYHIHGREEIHEWLHEFLRELRVHIIVHEMRAQGDKAHNRGTLNLTYGDKRRTVDVHIFIVVVNGRYKKIIVQVK” the value was 1.62; for “DEHEELLEHIIRLWLKYIHTGDFRNWMKYADPNAKWRTENHEHHGREEIARDLHEFNKKLGMEFRIDLRHFEIQGDKVRMHTEYILHIGDYTERRETEVTVIIVDGKIKSIRLLVR”, 1.67; for “DEHEELLRRIFELLLHALKTGDEDLLYKMADPNTRSIIGDKIHHGMEEHRKAVEKWLREMGVKHIEIKRVHIQGEKIHIDTHWKVGDKSETVKINIHVIDGRLTEIHIEIE”, 1.

In turn, “DEHEELLRRLADEWFKSLLTGDEDRLLELADPNMRIRLLINGRDEKIHGWEELVRWFREIRFRSMDIDSFTLVNGKIQIRFKYRGRVNGQTHETRSEFLLIVIDGKVTHVEVRLE” yielded a protease stability score of 2.46. “DEHEELMEEFMRKILHAWLTGDWDLINEMADPDVRTNINGRNEIGREEFEKLWQEIRFRRFDLKRWHVFNGVIHIDGHIDGEVNGRRTKRDVLIRLFIFNGRLKKEEVEYL” registered a protease stability score of 1.55. Next, “DEHEELMRRLMQLWMENWLTGDEDVLYKLADPNAKWDINGVKLHGREKMNEDRKEILERHGATFYLEIRDFTVINGRAHVDGHEDYIINGKRIRTDVQIILVIVNGKFKSEEVKIR”: 0.292; “DEHEELMRTLAEIVLRIFLTGDWDSFSKLADPNYRIDWNGRHTHGMHLAERVLREIHRQIRIDNVILQDMRIQGNKVHNHGTIDGNINGVHDKVQTHVHLILVDGRLKEVEFRHH”: -0.231.

With “DEHEEMFTKLMRELIHIWLTGDEDILNHMADPNVLVEINGRREHGREALSRFLEKFKNVRIHLHSSTAIGEKSIIDTQININGKQIKVRVEIYMVDGKIKEIRLDIQ”, the protease stability score turned out to be 1.29. Next, “DEHEEMVRIFIKLFIHNSHTGNEEELTRMADPHTKVDVNGKEYIGREEWRRFFMELGVDHVEVRRVHVQGEKAEVDLELNIDGRVIRFHIYTLKINGKWIIKSLEVR”: 1.78; “DEHEENVRKDIKEHEETEKTGDEKAYLEMADPHVKVDIDGVDLHGMERVTNFYRELLHKFPNIRIHTRHVDVQGEKVHVETELEWNGVKLETELVWVKINGRWLTHEIHIR”: 1.2.

“DEHEEQIEEFWRITVDQWMTGNEELIETYLDPNARVDINGKQTHGREQVTRLMLREMKHMRIKSIKLRRVRIVDGRVDLDGTLHGEVNGREFVLESHVHAEKFDGRWLIRTIKVN” had a protease stability score of 2.23.

As to “DEHEEQVRRFLHHLWRSVQTGDEHELANNFDPNTRVDVGDKHLHGMERFVYLIFEFARHWRIRHTTLHFIVRIGEFIEVDHILDGEIDGRRREVKMTIIIFKVDGRWIIRSMEVK”, the protease stability score stood at 1.82.

On to “DEHEERLEHWAEVIIRSWITGDESLFRHLFDPHVRTEVNGVERHGRDEAVKMERLIREHLGVKHEEIKDYHVQGDKIHVDSRVDVNGVKINTRIHVLVVNGRIKEVRFEFD”, for which the protease stability score was 0.841. Next, “DEHEESAEWHSELMIRSMETGDEDLFEHLLDPRARFHINGQDIHGRDSISHFLSRRLKDMGFKHSSLKTVTIEVQGEWVYLRIKVILIVDGRHLDTEIIIISRKIDGVWHVHSMEIRFR”: 1.34; “DEHEESVIWLLDVMFDAWRTGDEERVRRYLDPNVRIEVDGVSIHGRERVVEHLRRIDHLSVERVEIHHSTVINGVARTDGHVLLEFNIGDKHFRIERKSDSIVEKIDGRWIVHELTYR”: 0.202; “DEHEETIKRLAEIMEKWWFTGDEDALRLLLDPHVRIHLHQGDFNLDLIGMEHLRRLIHELIRKLGIDHSILKDRDIQGDKVTIHMELRIGDKTVTSHITMVMINGRLESFKIHFK”: 1.32. “DEHEETMHWALEVIEEFLQTGDERLMEENLDPNVRLEYGDKILVGRELFLELLRRLVEKYKNIRINIHDIKLYDGRLYLDVELRYGDFRSTTRIFSEKYNGRWVDRSYHVE” had a protease stability score of 1.71. Next, “DEHEEYMEELVKSIYTLWKTGDEDTLLSLFDPNMRILIDGVDAVGRENFKEEFRRFKEEIRHKDHKIHHIDIQGEKIRTEVLVHGIWDGVDTTLHVEIRIVVINGRVKSIEFHFT”: 1.74; “DEHEHAFRIIAEMLVEAMKTGNEETFSRLFDPNVRITWNGRHNHGRENYVEFIRQIRVDDLHIVLEDVRVIDGVIEVHGKMRIHGIVNGRRDEFIWESRVVIVKIDGRWHIESIRFD”: 1.09. Sequence “DEHEHFMEYAMKRMLHSWLTGDEHDWHELADPNVKLHIGEYNFIGREEYYRHLHRHLHEAGFKHIKIDHIHVEIQGEKLIFRMDTTIHFNGRKLRVEVIVILFKVNGRWSLHTDEVHIE” showed a protease stability score of 0.931. For “DEHEHLALRMTTRFTDMLRTGDWENMLRYFDPDARIIIDGRKHHGRERMHEIWREIRVTDLRINRERVRVQGDFVINHIDGEEDVEIGDKRISTRSIIILVVHKIDGRWHMKELEINIV” the value was 0.796; for “DEHEHLMLKVVLISIRALLTGDEDRFEHLADPHTRVEVNGVERHGREEYRKWLEHIRIKHIEVEESRAQGDFVHLNGRLRVSYGDKRFETETRWDWIIVDGKLKEMRIRIN”, 1.26; for “DEHEHMTELAHRIIMKTWETGDEEEQHRMFDPHARLIIDGKNIHGREQIQREMKRFSEEIRLRDATIHRVEIQGNKVISDWRLRIDVDGREVHFESHVIIRKVNGRWRIDHLILN”, 1.21. For “DEHEHQADHMQEILIRSHETGDEDLIREFFDPHARLDIGDKHNIGRESIKRFIHELLRILGLDNITLRVRHKTIQGDKIITHLELEVNGKRLEVIIHNEKINGQWSVRKVEWR” the value was 1.98; for “DEHEHVVERMARIQYKEMVTGDEELWYHLADPRVRYEIGDKEIIGREEVFRFIIEHKRDLGISKIDVRIRDIDLQGEWAIIDGTININGRKLETTIHLLVVDGRLKTFSLEIK”, 1.33. Next, “DEHEKEWQELFRLAAHVLETGDEKMLQHLIDPSARTRINGKYTHGWEESARTLHEIRRRLGIDHEEITDHEIQGDKVIIHGRSQVGDKNFTVNIEWIIVNGRLKSVNFTIH”: 0.55. In turn, “DEHEKHDRELKRIWVELFETGDEDTLIELADPNPRSRVNGKEFHGMEDIVQFLREWKMRIKGVREEIHHVDVINGRVRIDMKRFVGDKEFDVTIHLYVINGRFKQEEVRVH” yielded a protease stability score of 0.222. Next, “DEHEKIIKHFLELFMWALRTGDEEINRHLVDPNVRVDVNGVILIGREEVVHYLRHLQEKLGMEIEEVRVEDMSVFDGRLHVDMRIHGRIGDKHTTIETHYLILKFDGRWILEHRRIR”: 2.37; “DEHEMEIRDFIDKFLQSLRTGDEEKVHKLIDPHVRTQIDGQEFHGREEFLRFLRTHLERLGVDHIDVDLQQIEIVGEKINIHGTLTIEIDGRYLRHTFHLRVEKVNGKWIIESIRMT”: 2.15. In the case of “DEHENVMHDAIENIEHMIHTGDEHISERLLDPNVKLDVNGRRFHGWEEFNKWLHHMGADVVDHKRLESQGDKVHTDGRVFFNGREYDSEINSLKVNGRWLITEVRIH”, the protease stability score turned out to be 0.337. For “DEHEQEANEMMHRSLETLETGDERLLRHMADPNTKVQVGDKTWHGWHLLHEYRKEFRHARIIIREIDIQGEFVFLHGELDVNGKRLERTIIQLKVDGRWILHHMHLR” the value was 0.435; for “DEHEQFLRDIAIILIHAHLTGDWKRLEEMLDPNVRFEIDINGRSIEQHGRELYLRWVRKIHNEIWFRIEIEDISVINGRASVKVRLDLNVGDKVLHTRIHIEVVVIDGVLRSESIRVR”, 2.69; for “DEHERDAHRFIEHLWRILATGDEEELRKLFDPDAKHHDENELYHGREKVTKFISHRFKHLGIDHVEFRLTDLEVQGDKVISRILVIQRVNGVEYRIDMLFIFHKINGRWLIKSLEVH”, 1.36. Next, “DEHEREMHRLVDLLIKLLETGDEEISLRLADPHTRHDINGVHDHGRDKWEKSWEEHKKHLGWRIHYRIRDFRTQGDKARMEIQVDLHIGDKNIHLETHLLLISIDGVIKEIRIIIL”: 1.39.
